Source: patent publication US20220259330A1 (SUNSHINE GUOJIAN PHARMACEUTICAL SHANGHAI, published 2022)
Substitutions are numbered along the chain they refer to. Names may count otherwise. “And” between values parts separate entries of the source, which are not always exact repeats. Identical values can stand only once. One block for each binder: values may come before it.

How the values were obtained:
HER2-ECD-His = molecular target: T1, HER2-ECD-His (human, UniProt P04626 23-652); experiment: ELISA, plate coated with HER2-ECD-His
T1 construct: extracellular domain; Bought; also called recombinant protein of the extracellular segment of human Her-2 with a polyhistidine tag (ACROBiosystems HE2-H5225); not shown: polyhistidine tag

CD137-ECD-Fc = molecular target: T2, CD137-ECD-Fc (human, UniProt Q07011 24-186); experiment: ELISA, plate coated with CD137-ECD-Fc
T2 construct: extracellular domain; Bought; also called recombinant protein of the extracellular segment of human CD137 with Fc tags (Sino Biological 10041-H02H); not shown: Fc tag
T2 sequence (Q07011 24-186): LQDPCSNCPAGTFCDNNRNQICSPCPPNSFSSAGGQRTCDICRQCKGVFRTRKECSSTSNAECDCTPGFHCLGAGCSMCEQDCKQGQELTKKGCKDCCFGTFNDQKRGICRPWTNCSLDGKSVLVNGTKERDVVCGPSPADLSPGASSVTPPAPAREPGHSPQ

PD1-ECD-His = molecular target: T3, PD1-ECD-His (human, UniProt Q15116 25-170); experiment: ELISA, plate coated with PD1-ECD-His
T3 construct: extracellular domain; Bought; also called recombinant protein of the extracellular segment of human PD-1 with a polyhistidine tag (Sino Biological 10377-H08H); not shown: polyhistidine tag
T3 sequence (Q15116 25-170): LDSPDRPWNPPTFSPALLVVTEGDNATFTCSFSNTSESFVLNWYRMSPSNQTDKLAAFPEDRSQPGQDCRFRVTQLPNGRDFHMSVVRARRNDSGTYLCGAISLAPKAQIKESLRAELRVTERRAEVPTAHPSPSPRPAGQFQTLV

[1] = molecular target: TGF-β1 (Sino Biological, Cat. No. 10804-HNAC) (UniProt P01137 279-390); experiment: ELISA, plate coated with TGF-β1
Chain of TGF-β1 (Sino Biological, Cat. No. 10804-HNAC) (P01137 279-390 limits assumed): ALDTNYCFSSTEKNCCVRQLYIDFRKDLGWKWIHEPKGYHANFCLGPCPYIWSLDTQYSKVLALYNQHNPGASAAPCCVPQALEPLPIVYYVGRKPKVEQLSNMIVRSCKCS

PD1-His = molecular target: T4, PD1-His (human, UniProt Q15116 25-170); experiment: ELISA, plate coated with PD1-His
T4 construct: extracellular domain; In-house protein; also called extracellular domain protein of human PD-1 with a 6*His tag
T4 sequence (Q15116 other isoform, or with tags, fused parts or gaps): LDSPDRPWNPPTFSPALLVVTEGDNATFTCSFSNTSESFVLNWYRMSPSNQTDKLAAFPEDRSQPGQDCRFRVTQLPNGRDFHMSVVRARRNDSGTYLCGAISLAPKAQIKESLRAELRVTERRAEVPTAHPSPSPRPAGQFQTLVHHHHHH

- EC50 (HER2-ECD-His): 0.158 nM
- EC50 (CD137-ECD-Fc): 0.241 nM
B1: 94-Fab-19H6-IgG1-LALA (bispecific antibody)
heavy: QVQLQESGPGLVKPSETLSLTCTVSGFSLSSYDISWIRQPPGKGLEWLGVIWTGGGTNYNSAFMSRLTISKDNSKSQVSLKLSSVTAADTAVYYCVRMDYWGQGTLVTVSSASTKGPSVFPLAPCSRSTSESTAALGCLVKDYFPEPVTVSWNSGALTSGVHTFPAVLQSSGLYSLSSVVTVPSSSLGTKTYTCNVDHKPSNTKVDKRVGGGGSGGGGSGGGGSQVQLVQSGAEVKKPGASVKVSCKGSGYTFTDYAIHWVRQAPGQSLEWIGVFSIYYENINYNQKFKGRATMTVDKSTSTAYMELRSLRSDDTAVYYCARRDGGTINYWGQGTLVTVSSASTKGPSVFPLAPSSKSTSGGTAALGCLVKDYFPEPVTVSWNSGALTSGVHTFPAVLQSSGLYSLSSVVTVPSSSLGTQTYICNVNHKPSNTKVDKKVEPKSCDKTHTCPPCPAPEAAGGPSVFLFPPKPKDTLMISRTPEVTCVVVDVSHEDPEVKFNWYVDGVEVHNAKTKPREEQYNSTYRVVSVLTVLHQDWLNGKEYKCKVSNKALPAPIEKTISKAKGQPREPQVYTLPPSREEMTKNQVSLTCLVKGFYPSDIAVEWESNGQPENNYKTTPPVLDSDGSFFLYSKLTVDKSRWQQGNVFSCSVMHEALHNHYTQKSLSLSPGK
light: DVVMTQSPLSLPVTLGQPASISCRSSQSLVHSNGNTYLHWYQQRPGQSPRLLIYKVSNRFSGVPDRFSGSGSGTDFTLKISRVEAEDVGVYFCSQSTHIPWTFGQGTKVEIKRTVAAPSVFIFPPSDEQLKSGTASVVCLLNNFYPREAKVQWKVDNALQSGNSQESVTEQDSKDSTYSLSSTLTLSKADYEKHKVYACEVTHQGLSSPVTKSFNRGEC

- EC50 (HER2-ECD-His): 0.12 nM
- EC50 (CD137-ECD-Fc): 27.6 nM
B2: 19H6-Fab-94-IgG1-LALA (bispecific antibody)
heavy: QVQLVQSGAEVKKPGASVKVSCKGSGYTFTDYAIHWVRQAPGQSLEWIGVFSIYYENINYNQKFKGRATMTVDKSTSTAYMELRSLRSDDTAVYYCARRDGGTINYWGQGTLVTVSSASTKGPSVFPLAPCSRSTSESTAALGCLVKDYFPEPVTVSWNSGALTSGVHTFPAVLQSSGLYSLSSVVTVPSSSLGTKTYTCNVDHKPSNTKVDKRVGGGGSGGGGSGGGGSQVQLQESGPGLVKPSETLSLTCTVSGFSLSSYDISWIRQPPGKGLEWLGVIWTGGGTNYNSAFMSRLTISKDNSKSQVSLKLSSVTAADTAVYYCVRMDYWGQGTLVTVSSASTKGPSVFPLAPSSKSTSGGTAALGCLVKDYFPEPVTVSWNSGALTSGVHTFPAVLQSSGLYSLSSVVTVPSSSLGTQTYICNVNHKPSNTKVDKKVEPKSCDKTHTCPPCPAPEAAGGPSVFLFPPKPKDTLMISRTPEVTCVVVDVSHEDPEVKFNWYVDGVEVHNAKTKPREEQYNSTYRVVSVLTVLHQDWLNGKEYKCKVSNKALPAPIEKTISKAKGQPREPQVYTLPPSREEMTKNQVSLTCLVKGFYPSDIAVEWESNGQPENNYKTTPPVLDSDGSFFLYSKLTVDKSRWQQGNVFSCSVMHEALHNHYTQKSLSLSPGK
light: B1 light

- binding result (PD1-ECD-His): no binding
- EC50 (CD137-ECD-Fc): 0.461 nM
B3: Anti-CD137-Hu (antibody, human IgG4 S228P, kappa, V domains shown)
VH: QVQLVQSGAEVKKPGASVKVSCKASGYTFSSYWMHWVRQAPGQGLEWMGEINPGNGHTNYNEKFKSRVTLTVDKSTSTVYMELSSLRSEDTAVYYCARSFTTARGFAYWGQGTLVTVSS
VL: EIVMTQSPDFQSVTPKEKVTITCRASQTISDYLHWYQQKPDQSPKLLIKYASQSISGIPSRFSGSGSGSDFTLTINSLEAEDAATYYCQDGHSFPPTFGQGTKVEIKR
notes: Humanized anti-human CD137, IgG4 (S228P), kappa; also called humanized 4B4-1-1

- EC50 [1]: 0.0414 nM
B4: mAb127 (antibody, human IgG4 S228P, kappa, V domains shown)
VH: QVQLVQSGAEVKKPGASVKVSCKASGYTFTSEWMNWVRQAPGQGLEWMGQIFPALGSTNYNEMYEGRVTMTTDTSTSTAYMELRSLRSDDTAVYYCARGIGNYALDAMDYWGQGTLVTVSS
VL: DIQMTQSPSSLSASVGDRVTITCRASESVDFYGNSFMHWYQQKPGKAPKLLIYLASNLESGVPSRFSGSGSGTDFTLTISSLQPEDFATYYCQQNIEDPLTFGGGTKVEIKR
notes: Anti-TGF-β, IgG4 (S228P), kappa; also called mAb127-HC+mAb127-LC

- EC50 (PD1-ECD-His): 0.229 nM
- EC50 (CD137-ECD-Fc): 0.357 nM
B5: 609-Fab-137-IgG4 (bispecific antibody)
heavy: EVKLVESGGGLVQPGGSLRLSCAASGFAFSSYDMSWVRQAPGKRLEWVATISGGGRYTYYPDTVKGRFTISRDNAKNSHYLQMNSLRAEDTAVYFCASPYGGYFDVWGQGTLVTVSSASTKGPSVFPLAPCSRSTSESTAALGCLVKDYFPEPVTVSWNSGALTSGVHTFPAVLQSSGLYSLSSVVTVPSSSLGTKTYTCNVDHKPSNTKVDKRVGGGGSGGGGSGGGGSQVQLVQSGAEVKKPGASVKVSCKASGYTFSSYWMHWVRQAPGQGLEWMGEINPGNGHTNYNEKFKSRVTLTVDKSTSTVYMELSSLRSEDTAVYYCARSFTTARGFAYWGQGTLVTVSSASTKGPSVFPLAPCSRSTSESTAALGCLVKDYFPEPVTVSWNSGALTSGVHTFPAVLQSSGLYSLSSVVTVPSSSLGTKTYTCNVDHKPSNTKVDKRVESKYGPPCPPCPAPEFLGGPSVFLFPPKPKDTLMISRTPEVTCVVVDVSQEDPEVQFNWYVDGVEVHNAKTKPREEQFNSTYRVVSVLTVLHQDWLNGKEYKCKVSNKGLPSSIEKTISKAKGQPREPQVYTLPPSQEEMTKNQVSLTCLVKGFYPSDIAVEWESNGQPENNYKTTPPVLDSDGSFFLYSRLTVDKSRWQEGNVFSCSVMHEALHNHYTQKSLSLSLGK
light: EIVMTQSPDFQSVTPKEKVTITCRASQTISDYLHWYQQKPDQSPKLLIKYASQSISGIPSRFSGSGSGSDFTLTINSLEAEDAATYYCQDGHSFPPTFGQGTKVEIKRTVAAPSVFIFPPSDEQLKSGTASVVCLLNNFYPREAKVQWKVDNALQSGNSQESVTEQDSKDSTYSLSSTLTLSKADYEKHKVYACEVTHQGLSSPVTKSFNRGEC

- EC50 (PD1-ECD-His): 1.42 nM
- EC50 (CD137-ECD-Fc): 0.242 nM
B6: 137-Fab-609-IgG4 (bispecific antibody)
heavy: not shown
light: B5 light

- EC50 (PD1-His): 0.485 nM
B7: 20-Hu-HC+601-LC-D28G (antibody, human IgG4 S228P, kappa, V domains shown)
VH: EVQLVESGGGLVQPGGSLRLSCAASGFVFSNYDMSWVRQAPGKRLEWVATISGGGGYTYYSDSVKGRFTISRDNAKNSLYLQMNSLRAEDTAVYYCASPYGHYGFEYWGQGTLVTVSS
VL: DIQMTQSPSSLSASVGDRVTITCSASQGISNYLNWYQQKPGKAPKVLIYFTSSLHSGVPSRFSGSGSGTDFTLTISSLQPEDFATYYCQQYSTVPWTFGQGTKVEIKR

- EC50 (PD1-His): 0.533 nM
B8: 20-Hu-HC+601-LC-V46L (antibody, human IgG4 S228P, kappa, V domains shown)
VH: B7 VH
VL: B7 VL with G28D, V46L

- EC50 (PD1-His): 1.03 nM
B9: 20-Hu-HC+601-LC-F71Y (antibody, human IgG4 S228P, kappa, V domains shown)
VH: B7 VH
VL: B7 VL with G28D, F71Y

- EC50 (PD1-His): 0.175 nM
B10: 20-Hu-HC+601-LC-N34S (antibody, human IgG4 S228P, kappa, V domains shown)
VH: B7 VH
VL: B7 VL with G28D, N34S

- EC50 (PD1-His): 0.486 nM
B11: 20-Hu-HC+601-LC-T93N (antibody, human IgG4 S228P, kappa, V domains shown)
VH: B7 VH
VL: B7 VL with G28D, T93N

- EC50 (PD1-His): 0.456 nM
B12: 20-Hu-HC+601-LC-Y32F (antibody, human IgG4 S228P, kappa, V domains shown)
VH: B7 VH
VL: B7 VL with G28D, Y32F

- EC50 (PD1-His): 0.525 nM
B13: 20-Hu-HC+601-LC-F50Y (antibody, human IgG4 S228P, kappa, V domains shown)
VH: B7 VH
VL: B7 VL with G28D, F50Y

- EC50 [1]: 0.699 nM
- EC50 (PD1-His): 0.437 nM
B14: 14-Fab-1D11-IgG4 (bispecific antibody)
heavy: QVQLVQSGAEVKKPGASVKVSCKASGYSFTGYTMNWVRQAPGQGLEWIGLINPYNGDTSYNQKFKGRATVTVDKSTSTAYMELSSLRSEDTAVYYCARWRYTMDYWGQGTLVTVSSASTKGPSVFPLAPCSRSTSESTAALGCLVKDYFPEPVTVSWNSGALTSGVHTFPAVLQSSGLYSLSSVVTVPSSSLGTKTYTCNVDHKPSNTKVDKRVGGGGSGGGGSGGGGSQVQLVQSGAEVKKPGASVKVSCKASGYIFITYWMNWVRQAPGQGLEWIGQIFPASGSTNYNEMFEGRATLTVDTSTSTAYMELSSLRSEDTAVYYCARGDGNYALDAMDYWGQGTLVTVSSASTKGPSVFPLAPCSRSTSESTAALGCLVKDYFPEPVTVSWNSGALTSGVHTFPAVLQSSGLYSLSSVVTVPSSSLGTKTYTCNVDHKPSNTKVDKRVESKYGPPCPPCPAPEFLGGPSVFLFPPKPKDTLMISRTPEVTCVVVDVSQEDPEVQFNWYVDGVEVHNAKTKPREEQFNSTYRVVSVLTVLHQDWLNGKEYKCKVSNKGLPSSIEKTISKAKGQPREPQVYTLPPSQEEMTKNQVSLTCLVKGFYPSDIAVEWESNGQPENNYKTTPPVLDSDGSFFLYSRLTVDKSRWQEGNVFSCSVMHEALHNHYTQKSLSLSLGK
light: DIVLTQSPASLAVSPGQRATITCRASESVDNYGNSFMNWYQQKPGQPPKPLIYFASNLESGVPARFSGSGSRTDFTLTINPVEADDTANYYCQQNNEAPPTFGQGTKVEIKRTVAAPSVFIFPPSDEQLKSGTASVVCLLNNFYPREAKVQWKVDNALQSGNSQESVTEQDSKDSTYSLSSTLTLSKADYEKHKVYACEVTHQGLSSPVTKSFNRGEC

- EC50 [1]: 0.363 nM
- EC50 (PD1-His): 2 nM
B15: 1D11-Fab-14-IgG4 (bispecific antibody)
heavy: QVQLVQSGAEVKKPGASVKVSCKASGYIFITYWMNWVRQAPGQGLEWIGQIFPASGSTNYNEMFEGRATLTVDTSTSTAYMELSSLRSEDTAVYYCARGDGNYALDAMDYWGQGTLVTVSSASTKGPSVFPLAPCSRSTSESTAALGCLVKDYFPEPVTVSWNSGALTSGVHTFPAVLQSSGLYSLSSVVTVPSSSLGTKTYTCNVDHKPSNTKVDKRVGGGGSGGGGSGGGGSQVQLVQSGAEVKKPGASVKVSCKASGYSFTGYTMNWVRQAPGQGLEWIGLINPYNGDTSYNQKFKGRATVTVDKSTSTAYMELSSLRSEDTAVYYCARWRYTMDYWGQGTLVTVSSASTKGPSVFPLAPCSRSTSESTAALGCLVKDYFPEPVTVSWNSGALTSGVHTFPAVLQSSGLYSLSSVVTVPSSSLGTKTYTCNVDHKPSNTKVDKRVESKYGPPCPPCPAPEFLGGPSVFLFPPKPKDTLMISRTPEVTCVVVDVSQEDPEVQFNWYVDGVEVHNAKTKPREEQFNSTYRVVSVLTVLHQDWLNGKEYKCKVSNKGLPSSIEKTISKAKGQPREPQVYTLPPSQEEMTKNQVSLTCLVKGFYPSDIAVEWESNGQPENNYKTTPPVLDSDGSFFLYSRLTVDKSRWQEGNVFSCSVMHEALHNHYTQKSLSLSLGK
light: B14 light

- EC50 [1]: 0.108 nM
- EC50 (PD1-His): 3.96 nM
B16: 127-Fab-14-IgG4 (bispecific antibody)
heavy: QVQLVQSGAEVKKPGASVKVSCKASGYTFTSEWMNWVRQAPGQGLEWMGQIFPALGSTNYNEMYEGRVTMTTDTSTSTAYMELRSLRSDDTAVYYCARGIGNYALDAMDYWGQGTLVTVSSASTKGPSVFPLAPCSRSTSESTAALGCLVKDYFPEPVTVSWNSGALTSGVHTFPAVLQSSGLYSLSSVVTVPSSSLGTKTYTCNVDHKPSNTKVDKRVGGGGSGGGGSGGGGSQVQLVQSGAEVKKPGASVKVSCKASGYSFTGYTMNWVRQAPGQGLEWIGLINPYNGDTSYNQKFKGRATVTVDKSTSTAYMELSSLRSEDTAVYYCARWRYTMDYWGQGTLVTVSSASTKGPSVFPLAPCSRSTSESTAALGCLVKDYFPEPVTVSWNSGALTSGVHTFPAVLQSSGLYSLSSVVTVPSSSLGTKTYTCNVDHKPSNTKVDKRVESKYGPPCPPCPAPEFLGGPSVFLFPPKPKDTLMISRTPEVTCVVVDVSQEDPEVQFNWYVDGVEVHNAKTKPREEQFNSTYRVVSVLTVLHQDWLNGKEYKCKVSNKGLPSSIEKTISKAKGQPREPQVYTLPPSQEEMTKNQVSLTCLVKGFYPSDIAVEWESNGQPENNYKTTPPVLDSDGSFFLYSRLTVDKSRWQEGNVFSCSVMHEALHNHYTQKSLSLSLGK
light: B14 light

- EC50 (HER2-ECD-His): 0.139 nM
- binding result (CD137-ECD-Fc): no binding
B17: 19H6-Hu-HC+94-Hu-LC (antibody, human IgG1, kappa, V domains shown)
VH: QVQLVQSGAEVKKPGASVKVSCKGSGYTFTDYAIHWVRQAPGQSLEWIGVFSIYYENINYNQKFKGRATMTVDKSTSTAYMELRSLRSDDTAVYYCARRDGGTINYWGQGTLVTVSS
VL: DVVMTQSPLSLPVTLGQPASISCRSSQSLLHSNGNTYLHWYQQRPGQSPRLLFYKVSNRFSGVPDRFSGSGSGTDFTLKISRVEAEDVGVYFCSQSTHVPWTFGQGTKVEIKR
notes: Hybrid antibody

- binding result (HER2-ECD-His): no binding
- EC50 (CD137-ECD-Fc): 0.391 nM
B18: 94-Hu (antibody, human IgG1, kappa, V domains shown)
VH: QVQLQESGPGLVKPSETLSLTCTVSGFSLSSYDISWIRQPPGKGLEWLGVIWTGGGTNYNSAFMSRLTISKDNSKSQVSLKLSSVTAADTAVYYCVRMDYWGQGTLVTVSS
VL: B17 VL
notes: Humanized anti-human CD137, IgG1, kappa; also called 94-Hu-HC+94-Hu-LC

- binding result (HER2-ECD-His): no binding
- EC50 (CD137-ECD-Fc): 0.634 nM
B19: 94-Hu-HC+19H6-Hu-LC (antibody, human IgG1, kappa, V domains shown)
VH: B18 VH
VL: B17 VL with L30V, F53I, V99I
notes: Hybrid antibody

- binding result [1]: no binding
- binding result (PD1-His): no binding
B20: 14-Hu-HC+1D11-Hu-LC (antibody, human IgG4 S228P, kappa, V domains shown)
VH: QVQLVQSGAEVKKPGASVKVSCKASGYSFTGYTMNWVRQAPGQGLEWIGLINPYNGDTSYNQKFKGRATVTVDKSTSTAYMELSSLRSEDTAVYYCARWRYTMDYWGQGTLVTVSS
VL: DIVLTQSPASLAVSPGQRATITCRASESVDSYGNSFMHWYQQKPGQPPKLLIYLASNLESGVPARFSGSGSGTDFTLTINPVEADDTANYYCQQNNEDPLTFGGGTKVELKR
notes: Hybrid antibody

- EC50 [1]: 0.0662 nM and 0.134 nM
- binding result (PD1-His): no binding
B21: 1D11-Hu (antibody, human IgG4 S228P, kappa, V domains shown)
VH: QVQLVQSGAEVKKPGASVKVSCKASGYIFITYWMNWVRQAPGQGLEWIGQIFPASGSTNYNEMFEGRATLTVDTSTSTAYMELSSLRSEDTAVYYCARGDGNYALDAMDYWGQGTLVTVSS
VL: B20 VL
notes: Humanized anti-TGF-β, IgG4 (S228P), kappa; also called 1D11-Hu-HC+1D11-Hu-LC

- EC50 [1]: 0.525 nM and 1.27 nM
- binding result (PD1-His): no binding
B22: 1D11-Hu-HC+14-Hu-LC (antibody, human IgG4 S228P, kappa, V domains shown)
VH: B21 VH
VL: B20 VL with S31N, H38N, L50P, L54F, G72R, D98A, L100P, G104Q, L110I
notes: Hybrid antibody
